Source: PMC8429438, “DnaJC7 binds natively folded structural elements in tau to inhibit amyloid formation” (Nature Communications, 2021)
“And” between values parts separate entries of the source, which are not always exact repeats. Identical values can stand only once.

What was measured:
[1] = target: T1, full-length 2N4R P301L tau (human, UniProt P10636-8 1-441, P301L, Cy5 (Cyanine5 NHS ester) label in the MST assays; unlabelled in cross-linking and aggregation assays); assay: MST; WT tau or P301L tau labelled with Cyanine5 NHS ester dye (Cy5) and titrated by a serial two-fold dilution of DnaJC7 domains; n=3; Nanotemper Monolith NT.115; 1:1 binding model; settings: both partners purified
T1 construct: microtubule-associated protein tau, 2N4R isoform, with the frontotemporal dementia disease-associated P301L mutation; source: E. coli BL21 (DE3), pET28b, purified
T1 sequence (P10636 other isoform, or with tags, fused parts or gaps P301L | P301L | P301L P301L): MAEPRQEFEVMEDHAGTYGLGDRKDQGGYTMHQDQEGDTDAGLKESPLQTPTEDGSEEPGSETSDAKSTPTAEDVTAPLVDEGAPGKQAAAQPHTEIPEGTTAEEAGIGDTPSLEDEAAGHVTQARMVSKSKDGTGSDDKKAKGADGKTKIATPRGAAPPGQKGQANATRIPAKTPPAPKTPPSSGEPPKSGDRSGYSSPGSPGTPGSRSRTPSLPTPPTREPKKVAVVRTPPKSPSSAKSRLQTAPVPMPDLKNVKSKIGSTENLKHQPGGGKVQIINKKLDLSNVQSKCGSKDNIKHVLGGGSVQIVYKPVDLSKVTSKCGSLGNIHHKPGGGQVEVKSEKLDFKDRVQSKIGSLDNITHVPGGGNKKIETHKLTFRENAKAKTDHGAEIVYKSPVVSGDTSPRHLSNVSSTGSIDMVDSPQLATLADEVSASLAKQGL

[2] = target: T2, full-length 2N4R wild-type tau (human, UniProt P10636-8 1-441, Cy5 (Cyanine5 NHS ester) label in MST); assay: MST; Cy5-labelled wild-type or mutant tau/tauRD titrated with a serial two-fold dilution of DnaJC7 or single DnaJC7 domains; Monolith NT.115; technical triplicates; fit in PALMIST with a 1:1 binding model; settings: both partners purified
T2 construct: microtubule-associated protein tau, 2N4R isoform, full length; also called WT tau; full-length tau; source: E. coli BL21 (DE3), pET28b, purified
T2 sequence (P10636 other isoform, or with tags, fused parts or gaps): as the sequence (P10636 other isoform, or with tags, fused parts or gaps P301L | P301L | P301L P301L) above, with L301P counted along it

[3] = target: T3, full-length 2N4R P301L tau (human, UniProt P10636-8 1-441, P301L, Cy5 (Cyanine5 NHS ester) label in MST); assay: as above; settings: both partners purified
T3 construct: microtubule-associated protein tau, 2N4R isoform, full length, with the disease-associated P301L mutation; also called full-length P301L tau mutant; source: E. coli BL21 (DE3), pET28b, purified
T3 sequence (P10636 other isoform, or with tags, fused parts or gaps P301L | P301L | P301L P301L): as the sequence (P10636 other isoform, or with tags, fused parts or gaps P301L | P301L | P301L P301L) above

[4] = target: T4, full-length 2N4R wild-type tau (human, UniProt P10636-8 1-441, Cy5 (Cyanine5 NHS ester) label in the MST assays; unlabelled in cross-linking and aggregation assays); assay: MST; WT tau or P301L tau labelled with Cyanine5 NHS ester dye (Cy5) and titrated by a serial two-fold dilution of DnaJC7 domains; n=3; Nanotemper Monolith NT.115; 1:1 binding model; settings: both partners purified
T4 construct: microtubule-associated protein tau, 2N4R isoform; also called WT tau; WT TAU; source: E. coli BL21 (DE3), pET28b, purified
T4 sequence (P10636 other isoform, or with tags, fused parts or gaps): as the sequence (P10636 other isoform, or with tags, fused parts or gaps P301L | P301L | P301L P301L) above, with L301P counted along it

[5] = target: T2, full-length 2N4R wild-type tau; assay: cell-based or functional assay
[6] = target: T5, recombinant tau monomer seed (human, UniProt P10636-8 1-441, Cy5 (Cyanine5 NHS ester) label in MST); assay: MST; Cy5-labelled wild-type or mutant tau/tauRD titrated with a serial two-fold dilution of DnaJC7 or single DnaJC7 domains; Monolith NT.115; technical triplicates; fit in PALMIST with a 1:1 binding model; settings: both partners purified
T5 construct: Probably made from the full-length 2N4R tau of m5; the methods say only 'wild-type tau'; also called tau monomer seeds; tau seeds; source: wild-type tau from E. coli BL21 (DE3) incubated 1:1 with heparin for 1 h at 37 °C, isolated on Superdex 200
T5 sequence (P10636 other isoform, or with tags, fused parts or gaps): as the sequence (P10636 other isoform, or with tags, fused parts or gaps P301L | P301L | P301L P301L) above, with L301P counted along it

| Kd [1] [nM] | Kd [2] | fold increase in binding affinity relative to full-length DnaJC7 [3] [fold] | Binder | also measured |
| --- | --- | --- | --- | --- |
| 404 | – | – | DnaJC7 TPR1 domain (20-156) (domain or fragment, UniProt Q99615 20-156, looked up, DnaJC7, TPR1 domain, residues 20-156; also called TPR1_(20-156); not shown: His tag (from the vector pMCSG7)) DDQEAKREAETFKEQGNAYYAKKDYNEAYNYYTKAIDMCPKNASYYGNRAATLMMLGRFREALGDAQQSVRLDDSFVRGHLREGKCHLSLGNAMAACRSFQRALELDHKNAQAQQEFKNANAVMEYEKIAETDFEKR | – |
| – | 84 nM | > 12 | DnaJC7 TPR1 domain (TPR1 20-156) (domain or fragment, UniProt Q99615 20-156, looked up, DnaJC7 residues 20-156, TPR1 domain) DDQEAKREAETFKEQGNAYYAKKDYNEAYNYYTKAIDMCPKNASYYGNRAATLMMLGRFREALGDAQQSVRLDDSFVRGHLREGKCHLSLGNAMAACRSFQRALELDHKNAQAQQEFKNANAVMEYEKIAETDFEKR | – |
| – | 8200 nM | – | DnaJC7 J domain (JD 380-494) (domain or fragment, UniProt Q99615 380-494, looked up, DnaJC7 residues 380-494, C-terminal J domain; also called J domain_(380-494)) KDYYKILGVDKNASEDEIKKAYRKRALMHHPDRHSGASAEVQKEEEKKFKEVGEAFTILSDPKKKTRYDSGQDLDEEGMNMGDFDPNNIFKAFFGGPGGFSFEASGPGNFFFQFG | Kd [3]: 28200 nM |
| 670 | – | – | DnaJC7 TPR2a domain (141-270) (domain or fragment, UniProt Q99615 141-270, looked up, DnaJC7, TPR2a domain, residues 141-270; also called TPR2a_(141-270); not shown: His tag (from the vector pMCSG7)) AVMEYEKIAETDFEKRDFRKVVFCMDRALEFAPACHRFKILKAECLAMLGRYPEAQSVASDILRMDSTNADALYVRGLCLYYEDCIEKAVQFFVQALRMAPDHEKACIACRNAKALKAKKEDGNKAFKEG | Kd [4]: 202 nM |
| – | – | > 12 | DnaJC7 TPR2a domain (TPR2a 141-270) (domain or fragment, UniProt Q99615 141-270, looked up, DnaJC7 residues 141-270, TPR2a domain) AVMEYEKIAETDFEKRDFRKVVFCMDRALEFAPACHRFKILKAECLAMLGRYPEAQSVASDILRMDSTNADALYVRGLCLYYEDCIEKAVQFFVQALRMAPDHEKACIACRNAKALKAKKEDGNKAFKEG | fold tighter binding than full-length DnaJC7 [2]: > 2 fold |
| – | 471 nM and 343 nM | – | DnaJC7 (full-length, wild type, recombinant) (natural protein, UniProt Q99615 1-494, looked up, DnaJC7, class-C J-domain protein with TPR1, TPR2a, TPR2b and a C-terminal J domain; called full-length DnaJC7; Plasmid was a gift (A. Joachimiak); also called DnaJC7WT; WT DnaJC7) MAAAAECDVVMAATEPELLDDQEAKREAETFKEQGNAYYAKKDYNEAYNYYTKAIDMCPKNASYYGNRAATLMMLGRFREALGDAQQSVRLDDSFVRGHLREGKCHLSLGNAMAACRSFQRALELDHKNAQAQQEFKNANAVMEYEKIAETDFEKRDFRKVVFCMDRALEFAPACHRFKILKAECLAMLGRYPEAQSVASDILRMDSTNADALYVRGLCLYYEDCIEKAVQFFVQALRMAPDHEKACIACRNAKALKAKKEDGNKAFKEGNYKLAYELYTEALGIDPNNIKTNAKLYCNRGTVNSKLRKLDDAIEDCTNAVKLDDTYIKAYLRRAQCYMDTEQYEEAVRDYEKVYQTEKTKEHKQLLKNAQLELKKSKRKDYYKILGVDKNASEDEIKKAYRKRALMHHPDRHSGASAEVQKEEEKKFKEVGEAFTILSDPKKKTRYDSGQDLDEEGMNMGDFDPNNIFKAFFGGPGGFSFEASGPGNFFFQFG | ThT fluorescence of 4.4 µM WT tau seeded with 50 nM tau monomer seeds with equimolar DnaJC7WT over 100 h, relative to the seeded tau control [5]: 20%; Kd [6]: 15500 ± 2200 nM |
| – | 6000 ± 1200 nM | – | DnaJC7_(TPR2b_mut) (full-length DnaJC7 with six alanine mutations in the TPR2b binding groove) (natural protein, UniProt Q99615 1-494, looked up, also called DnaJC7_(TPR2_mut); source: recombinant from pET29b (NdeI/XhoI)) MAAAAECDVVMAATEPELLDDQEAKREAETFKEQGNAYYAKKDYNEAYNYYTKAIDMCPKNASYYGNRAATLMMLGRFREALGDAQQSVRLDDSFVRGHLREGKCHLSLGNAMAACRSFQRALELDHKNAQAQQEFKNANAVMEYEKIAETDFEKRDFRKVVFCMDRALEFAPACHRFKILKAECLAMLGRYPEAQSVASDILRMDSTNADALYVRGLCLYYEDCIEKAVQFFVQALRMAPDHEKACIACRNAKALKAKAEDGAKAAAAGNAKLAYELYTEALGIDPNNIKTNAKLYCNRGTVNSKLRKLDDAIEDCTNAVKLDDTYIKAYLRRAQCYMDTEQYEEAVRDYEKVYQTEKTKEHKQLLKNAQLELKKSKRKDYYKILGVDKNASEDEIKKAYRKRALMHHPDRHSGASAEVQKEEEKKFKEVGEAFTILSDPKKKTRYDSGQDLDEEGMNMGDFDPNNIFKAFFGGPGGFSFEASGPGNFFFQFG | – |
| 507 | – | – | DnaJC7 TPR2b domain (255-370) (domain or fragment, UniProt Q99615 255-370, looked up, also called TPR2b_(255-370); TPR2b_(253-370); not shown: His tag (from the vector pMCSG7)) ALKAKKEDGNKAFKEGNYKLAYELYTEALGIDPNNIKTNAKLYCNRGTVNSKLRKLDDAIEDCTNAVKLDDTYIKAYLRRAQCYMDTEQYEEAVRDYEKVYQTEKTKEHKQLLKNA | – |
| – | 75 nM | > 12 | DnaJC7 TPR2b domain (TPR2b 255-370) (domain or fragment, UniProt Q99615 255-370, looked up, also called TPR2b_(253-370)) ALKAKKEDGNKAFKEGNYKLAYELYTEALGIDPNNIKTNAKLYCNRGTVNSKLRKLDDAIEDCTNAVKLDDTYIKAYLRRAQCYMDTEQYEEAVRDYEKVYQTEKTKEHKQLLKNA | – |
